What was measured:
[1] = target: T1, recombinant cynomolgus IL-17A (SEQ ID NO: 79) (cynomolgus monkey, UniProt Q16552 24-155 (human entry), limits assumed); experiment: SPR (Biacore), captured antibody, antigen as analyte
T1 construct: also called cynoIL-17A; cyno IL-17A
T1 chain: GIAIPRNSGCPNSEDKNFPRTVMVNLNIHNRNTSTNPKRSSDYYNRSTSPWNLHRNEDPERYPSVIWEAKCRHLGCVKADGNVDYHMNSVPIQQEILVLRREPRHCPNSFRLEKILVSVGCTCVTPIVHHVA

[2] = target: T2, recombinant human IL-17A/F heterodimer (human, UniProt Q16552 24-155; Q96PD4 31-163, limits assumed); experiment: as above
T2 construct: heterodimer of an IL-17A subunit and an IL-17F subunit; also called huIL-17A/F; rhuIL-17A/F
T2 sequence (looked up) 1: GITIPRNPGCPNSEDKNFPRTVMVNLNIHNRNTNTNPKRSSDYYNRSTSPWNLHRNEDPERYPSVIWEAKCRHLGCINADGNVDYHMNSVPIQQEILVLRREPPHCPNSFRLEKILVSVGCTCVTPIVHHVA
T2 sequence (looked up) 2: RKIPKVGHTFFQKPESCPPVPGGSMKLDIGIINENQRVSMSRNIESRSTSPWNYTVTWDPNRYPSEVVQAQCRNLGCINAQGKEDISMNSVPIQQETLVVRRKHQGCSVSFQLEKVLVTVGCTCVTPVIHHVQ

[3] = target: T3, recombinant mouse IL-17A (SEQ ID NO: 83) (mouse, UniProt Q62386 26-158); experiment: as above
T3 construct: also called mIL-17A; rmIL-17A
T3 sequence: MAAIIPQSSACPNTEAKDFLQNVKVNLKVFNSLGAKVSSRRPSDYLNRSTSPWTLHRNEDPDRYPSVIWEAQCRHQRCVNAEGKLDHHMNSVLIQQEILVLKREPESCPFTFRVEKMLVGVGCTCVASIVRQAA

[4] = target: T4, marmoset IL-17A (SEQ ID NO: 82) (marmoset monkey); experiment: as above
T4 construct: also called marmIL-17A
T4 chain: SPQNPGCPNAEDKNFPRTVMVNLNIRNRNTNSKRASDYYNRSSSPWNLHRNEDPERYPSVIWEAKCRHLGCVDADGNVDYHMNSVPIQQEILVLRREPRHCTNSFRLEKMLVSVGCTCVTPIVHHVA

[5] = target: T5, recombinant human IL-17A (SEQ ID NO: 78) (human, UniProt Q16552 24-155, limits assumed); experiment: as above
T5 construct: homodimer; also called huIL-17A; hulL-17A
T5 sequence: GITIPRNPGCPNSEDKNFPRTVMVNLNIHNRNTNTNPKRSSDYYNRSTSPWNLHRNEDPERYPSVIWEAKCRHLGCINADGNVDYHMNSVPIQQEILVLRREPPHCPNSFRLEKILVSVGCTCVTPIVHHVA

[6] = target: T6, recombinant rat IL-17A (SEQ ID NO: 85) (rat, UniProt Q61453 18-150); experiment: as above
T6 construct: also called rratIL-17A; rIL-17A
T6 sequence: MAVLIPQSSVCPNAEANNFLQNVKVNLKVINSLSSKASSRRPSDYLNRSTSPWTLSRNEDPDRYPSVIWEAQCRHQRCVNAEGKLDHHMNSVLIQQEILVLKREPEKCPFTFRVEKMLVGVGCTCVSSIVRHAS

[7] = target: T7, recombinant mouse IL-17A/F (R&D Systems Cat#5390-IL) (mouse, UniProt Q62386 26-158; Q7TNI7 29-161, limits assumed); experiment: as above
T7 construct: bought heterodimer; also called mIL-17A/F; rmIL-17A/F
T7 sequence (looked up) 1: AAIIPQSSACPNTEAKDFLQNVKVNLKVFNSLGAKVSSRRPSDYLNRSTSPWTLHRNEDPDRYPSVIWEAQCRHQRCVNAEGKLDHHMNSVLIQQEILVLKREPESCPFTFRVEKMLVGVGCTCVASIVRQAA
T7 sequence (looked up) 2: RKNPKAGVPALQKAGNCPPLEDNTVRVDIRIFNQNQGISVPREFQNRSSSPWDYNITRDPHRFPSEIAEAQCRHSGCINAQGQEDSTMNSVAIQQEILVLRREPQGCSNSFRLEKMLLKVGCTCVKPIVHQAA

[8] = target: T8, recombinant human IL-3 (R&D Systems Cat#203-IL/CF) (human, UniProt P08700 20-152); experiment: ELISA, coated cytokine;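 also: antibodies incubated 3 h at room temperature on cytokine-coated plates, binding read out with alkaline phosphatase-conjugated anti-species IgG secondary antibodies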
T8 construct: also called huIL-3
T8 sequence (looked up): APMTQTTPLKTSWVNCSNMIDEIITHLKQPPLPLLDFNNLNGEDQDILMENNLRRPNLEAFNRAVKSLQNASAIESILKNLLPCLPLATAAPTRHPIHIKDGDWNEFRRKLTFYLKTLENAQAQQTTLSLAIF

[9] = target: T9, recombinant human IL-1β (Novartis) (human, UniProt P01584 117-269); experiment: ELISA, coated cytokine;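 also: antibodies incubated 3 h at room temperature on cytokine-coated plates, binding read out with alkaline phosphatase-conjugated anti-species IgG secondary antibodies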
T9 construct: also called huIL1β

[10] = target: T10, recombinant human IL-12 (R&D Systems Cat#219-IL-005/CF) (human, UniProt P29459 23-219; P29460 23-328); experiment: ELISA, coated cytokine;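 also: antibodies incubated 3 h at room temperature on cytokine-coated plates, binding read out with alkaline phosphatase-conjugated anti-species IgG secondary antibodies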
T10 construct: also called huIL-12
T10 sequence (looked up) 1: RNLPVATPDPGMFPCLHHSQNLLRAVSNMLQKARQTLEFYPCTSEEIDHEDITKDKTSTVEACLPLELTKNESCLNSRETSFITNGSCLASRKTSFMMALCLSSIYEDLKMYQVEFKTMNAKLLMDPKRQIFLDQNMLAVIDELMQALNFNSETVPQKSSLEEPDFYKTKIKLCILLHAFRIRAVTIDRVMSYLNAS
T10 sequence (looked up) 2: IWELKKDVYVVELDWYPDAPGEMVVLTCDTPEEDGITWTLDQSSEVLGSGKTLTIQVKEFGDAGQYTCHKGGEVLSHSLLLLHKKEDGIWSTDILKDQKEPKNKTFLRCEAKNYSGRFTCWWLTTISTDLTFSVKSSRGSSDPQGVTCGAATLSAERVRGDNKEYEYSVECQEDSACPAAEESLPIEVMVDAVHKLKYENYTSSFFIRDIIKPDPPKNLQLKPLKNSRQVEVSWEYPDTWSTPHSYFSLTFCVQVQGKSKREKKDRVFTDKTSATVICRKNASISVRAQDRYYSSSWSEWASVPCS

[11] = target: T11, recombinant human IL-23 (R&D Systems Cat#1290-IL-010/CF) (human, UniProt Q9NPF7 20-189; P29460 23-328); experiment: ELISA, coated cytokine;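 also: antibodies incubated 3 h at room temperature on cytokine-coated plates, binding read out with alkaline phosphatase-conjugated anti-species IgG secondary antibodies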
T11 construct: also called huIL-23
T11 sequence (looked up) 1: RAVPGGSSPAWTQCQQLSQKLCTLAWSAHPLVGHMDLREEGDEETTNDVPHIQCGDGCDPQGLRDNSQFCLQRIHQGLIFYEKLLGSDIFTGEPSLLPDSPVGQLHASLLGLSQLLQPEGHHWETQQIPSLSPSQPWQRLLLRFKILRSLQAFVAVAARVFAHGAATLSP
T11 sequence (looked up) 2: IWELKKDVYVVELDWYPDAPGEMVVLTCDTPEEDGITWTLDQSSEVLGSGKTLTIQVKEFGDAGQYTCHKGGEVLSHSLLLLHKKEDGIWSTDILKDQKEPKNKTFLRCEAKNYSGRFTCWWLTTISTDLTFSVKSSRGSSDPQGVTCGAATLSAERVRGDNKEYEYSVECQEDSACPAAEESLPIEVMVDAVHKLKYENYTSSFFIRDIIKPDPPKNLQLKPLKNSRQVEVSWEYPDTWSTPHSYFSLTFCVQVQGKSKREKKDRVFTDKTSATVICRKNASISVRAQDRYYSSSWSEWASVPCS

Binder | Kd [1] [nM] | Kd [2] [nM] | Kd [3] [nM] | Kd [4] [nM] | Kd [5] [nM] | Kd [6] [nM] | Kd [7] [nM] | binding result [8] | binding result [9] | binding result [10] | binding result [11]
XAB4 (antibody, human IgG1, kappa, V domains shown, also called MB435 N56Q) VH: EVQLVESGGDLVQPGGSLRLSCAASGFTFSSYWMSWVRQAPGKGLEWVANIKQDGSEKYYVDSVKGRFTISRDNAKNSLYLQMNSLRAEDTAVYYCARDRGSLYYWGQGTLVTVSS VL: AIQLTQSPSSLSASVGDRVTITCRPSQGINWELAWYQQKPGKAPKLLIYDASSLEQGVPSRFSGSGSGTDFTLTISSLQPEDFATYYCQQFNSYPLTFGGGTKVEIKR | 0.031 | < 0.011 | 0.16 | 0.018 | 0.0057 | 0.084 | 0.26 | no binding (tested: 10 µg/ml) | no binding (tested: 10 µg/ml) | no binding (tested: 10 µg/ml) | 
XAB1 (antibody, human IgG1, kappa, V domains shown, human IgG1/kappa monoclonal antibody; also called parental XAB1; XAB1 IgG) VH: EVQLVESGGDLVQPGGSLRLSCAASGFTFSSYWMSWVRQAPGKGLEWVANIKQDGSEKYYVDSVKGRFTISRDNAKNSLYLQMNSLRAEDTAVYYCARDRGSLYYWGQGTLVTVSS VL: AIQLTQSPSSLSASVGDRVTITCRPSQGIISALAWYQQKPGKAPKLLIYDASSLENGVPSRFSGSGSGTDFTLTISSLQPEDFATYYCQQFNSYPLTFGGGTKVEIKR |  |  |  |  |  |  |  |  |  |  | no binding (tested: 10 µg/ml)
